Results: the DeepSol protein solubility set

Test: soluble on expression in E. coli; label from the status in PepcDB or PDB records

Sequence | soluble on expression in E. coli
MSLTVERVSAPTPAAFVDAANAAFRNGAVLSVQARCEVEYNGRTSGYLGDGDRLLVAKPDGTFLVHQPTGHKPVNWMPGGGTVEARTSQGDAVLLARRSNPTERVETRLHEVYGVTRFDAEDGATYEESGTEAEMHEYIEANPDALEAGLRIVEHERETKYGFIDFYAVDGDGTPVVIEVKRIQATLNHFDQLKRYVDRYAETNDDVRGMLVAPSASERVTRALRDNGLEFVALAEFGLDAKGATEAKLTDFEGHHHHHH | soluble
MGSDKIHHHHHHMFAMAGFPDKIKTIKKGLDVPIAGEPRQEIDCCARPAKVALLGEEYVGLKPTLLVEVGDRVKKGQTLFEDKKAPGIGFTAPASGVVVEINRGERRVLQSVVIQVEGDEQVTFKAYSDLSRLSREAVQQNLAESGLWTALRTRPFSRVPLLDSEPAAIFVNAMDTNPLAADPRVIIAEQREAFAAGLEVLTYLTSGKIHLCHDAGEALPGADLARVESHRFAGVHPAGLVGTHIHFIAPASLERPVWHLGYQDVIAYGKLFLTGELYTDRVVALGGPTALNPRLLRTQLGAQLSTLVEGEIKPGSNRVVSGSVLAGHTAFGVHDYLGRFHQQISVLAEDAKHQLLPWVRGGADKFSITRAVTSRFKATKRLFDLTTHAGGSHRAMMAFGQLDRVMPLDILPTLLVRDLVVRDTDEAQALGALELDEEDLALCTFVCPGKYDFGRELRICLDIIEREG | not soluble
MGSDKIHHHHHHMYAETDFIALSALQHYVFCPRQCALIHLEQVWSENLYTAEGREMHERADSAVTSYREGVKVTRSVPLRSAVLGVSGVADVVEWHRREGGFEPFPVEYKRGKPKKHDADKVQLCAQAMCLEEMRSCAIPSGALFYGQTMRRLDVVFDEVLRSKTVAAAAGVHGLFSLGVTPHPEFGPKCKLCSLVDECLPEVLERHGSAKRYVQKLYRELSGEEI | not soluble
SETQKTQAENPPKPATSSCRKKTKDDANFLEDVKDHIDDFINASMDDHKNCFNKTIKKMFGLSKAVADKQQSEAKGGVESYLPLQTTVSD | soluble
MGSDKIHHHHHHMLHRRKTYTIRPERLQEFTEFFHTYLYPLQISHGARLVGRWVNEAEDEVIAIWEYRDREHYEQVDRDVRGSTLRREAMKKRARLGKNLYIKSTEDFLTATGVYAPPRAIVSVTAYITNEAGEVLLVRNLHRGDTYEMPGGQVENHESILDAVKREVKEETGADVTIEGITGIYQNVSSHVLCVAFRGTYTGGELRPQEGETAEVGFFDLNRENIDTYIKREHFQLRTLDAMDPHYFPHALYKVRPYELISRYDGNAPSALSGQN | not soluble
MGSSHHHHHHGGTGENLYFQGGSGAFRGSSARLAATPGVGIAPETTPVKYVPEMLNIQNAKWWNGRGKPVYRSTYNEKSWLEKARWGAFTKGSRPVMRQRYSAAALKEALEMVPEGFETCDVPRPPQRIRAQSEGVVGRWYTNYWTLHSVRYQCQLAGVEWQFGERQRPRTNYDEPHMYTDFEETKAIRDYRSRWINVNRSLVGMSRRMKESEEEARYLHFKKVQDTFWSNRKVLVNRIKSMHNQGTLQSAKDLPIKTINIKAFLAE | not soluble
MSLNNKIKPSILPGFMELLPKEQLVFNDIVSKITGVYEQNGFLPMDTPIIEKEEVLLAKSAGETEKQVYRIDNEDRKQVLRFDLTVPFSRFAAQYMSDLTFPFKRYQLGKVYRGERNQKGRYREFYQCDVDVVGNGNLSIKNDAFIINMASKALRKIGLDSYKFQISNRKILTGVLEGLNITNMQEVMILIDKYDKITEEQFLSELNKLIGEEKAKVISKVIKISGSSDEVVENLKKVEIKNEMLEKGIEEVEEVIKYLKLFGVEDSEYAINLKIIRGLDYYTGTVFETLLTGNESYGSICSGGRYDNLAQNYTENVLPGVGMSIGITRLFFVLREIGFIENYNSSLNEKYLIVPIGDTFEYCTKILNKLLVNGKSAEIYFEEGKLKKKLTYANKLDIKYVILIGEDEVTNKELVIKDMITGEQKKLNIEEIEGHHHHHH | soluble
SAVAVEGARRKERILCLFDVDGTLTPARQKIDPETIQNHLGEELLQDLINFCLSYMALLRLPKKRGTFIEFRNGMLNVSPIGRSCTLEERIEFSELDKKEKIREKFVEALKTEFAGKGLRFSRGGMISFDVFPEGWDKRYCLDSLDEDSFDIIHFFGNETSPGGNDFEIYADPRTVGHSVVSPQDTVQRCRELFFPETAHEA | soluble
VSDQFDAKAFLKTVTSQPGVYRMYDAGGTVIYVGKAKDLKKRLSSYFRSNLASRKTEALVAQIQQIDVTVTHTETEALLLEHNYIKLYQPRYNVLLRDDKSY | soluble
MGHHHHHHSHMKEPLDGECGKAVVPQQELLDKIKEEPDNAQEYGCVQQPKTQESKLKIGGVSSVNERPIAQQLNPGFQLSFASSGPSVLLPSVPAVAIKVFCSGCKKMLYKGQTAYHKTGSTQLFCSTRCITRHSSPACLPPPPKKTCTNCSKYKILNIPFYFTFF | not soluble
MTKHARFSLLPSFIIFSAALLAGCNDQGDTQAHAGEPQVTVHVVETAPLAVTTELPGRTSAFRIAEVRPQVSGIVLKRNFTEGSDVEAGQSLYQIDPATYQADYDSAKGELAKSEAAAAIAHLTVKRYVPLVGTKYISQQEYDQAIADARQADAAVVAAKAAVESARINLAYTKVTSPISGRIGKSNVTEGALVTNGQSTELATVQQLDPIYVDVTQSSNDFMRLKQSVEQGNLHKDSASSTVQLVMENGQVYPIKGTLQFSDVTVDESTGSITLRAVFPNPQHSLLPGMFVRARIDEGVQPNAILVPQQGVTRTPRGDAMVMVVNDKSQVEARNVVAAQAIGDKWLISEGLKPGDKVIVSGLQKARPGVQVKATTDAPAAKTAQ | not soluble
MGSDKIHHHHHHMILKYAPLNLDQKFSLVYFRMTHDNCWSKITEKHDVMIHTLKLLPNKDRDIIYGLFELKVKGKRTLRDFLRDLNRSGTIRKLGGLSISELKSNIYIIDLYETYSGMIQGKLNDYNSIFDFDLVKYGVEEKYAVIPSENVNELKNELQSMGQLFDFRAKYFPNFYEVLTPYFNFTPIEMQIIIEAYNLGYYDIPRRAGIREIAEYFGLSKSTVQEYIRNAESKTMSNMKLFRMLNELKRL | not soluble
MVRPEDFNSLELDNSLTDGETVHEMMAHKAGLTYNDFNILPGFINFGVHDVSLETNITKDLKIKAPLVSSPMDTVTESGMAIVMALYGGIGIIHGNFPKPEDQAAEVLKVKRFKQGYVMQPHCLSRDSTAFDMIQIKKKYGYTGAPVTEDGRVGSKLIGMVTSRDFDFITMDVAGQKGTPISDTNDVTPTTPITRIMVSVDQLHLGHINDAPELSQKKLKEHRLGKLPIVNDNGELCALLCRSDLLKARDYPMASYDSKGQLLCGAAVNTRGESQYTVDRVVEAGVDVLIIDSSNGSSTYQISMLRYIKEKHPHVQVIAGNVVTRAQAKLLIDQGADGLRIGMGSGSICITQDVMAVGRAQGTAVYDVARYANQRGIPIVADGGIRDVGYITKAISLGASAVMMGGLLAATTEAPGEYFWGPGGVRVKKYRGMGSLDAMEAHASSQDRYFTAHVFFSILSYF | not soluble
GMRVDKHEVRVGELAAGQPLSLPVYRFKGKGAGPSVYIQANVHGAEVQGNAVIYQLMKLLEHYELLGDISLVPLANPLGINQKSGEFTLGRFDPITGVNWNREYLDHGFNIEVWYQEHSHLDDDTLITAFRATLVEECARRLNNPWGVTTGHRLAVTLQSMAHRADIVLDLHTGPKSCKHLYCPEYERSAAQYFSIPYTLLIPNSFGGAMDEAAFVPWWTLAEVASSHGRELGVRVSALTLELGSQERIDLDDALEDAEGILAYLSHRGVIAETVLPKPMKRYGCFLKNYRKFHAPKAGMVEYLGKVGVPMKATDPLVNLLRLDLYGTGEELTVLRLPEDGVPILHFASASVHQGTELYKVMTKVFEL | soluble
MGSDKIHHHHHHMQKLMHCSIMDLRLLVAVADAGNMSKGGAVCFLAPSTASLRIKHLEAIVGTRLFRREARGVSLTRAGQIMVDHSRRCLTEIEQMQASLTPFSEDVHAQLVLYANSSAIASFLPGDLQGFLQSHPKARITLEEHLSRDVLVAVVEGRADIGILTKDEPHPDLVYFPYHEDEIVLLLAETQPWTKTEPVAFLDCLSFPFVSQQNGSAIHSFLLAKASEQGRRVDVRIQVAGFAAVASMVRSGVGVAIVPRSALAAINVEGLRVVALSDAWARRTLSLCVRRDVLGSRNYVTALVDVLRQSGDQAGVADSA | not soluble
MSLKRTITPVHEVQTEWVHLHYAESSIFKEVYGFVGTQGTVNLEGVRYTPVGRPSKTLLVFMHPASTLQLLPMPRELARHGAHVLCAGSRYQRNDSALIMENVVVDLGAYIRHAKEVWKYEKVVLVGWSGGGSLSLLYQSQAENPTISTTPAGDPCSIKQAGLMPADAFIFQAAHTGRARMLSEWIDPSVLDENDPDRIDPGLNLYATTCRPPYSADFLAAFRAGQRARLRRRTAWVKETLETLRRKGGQEVERGFVTHRTMADPRFLDPTIEPNDRPIGRCFMGIPETVNNGPVGIARFSTLRAWLSQWSPDDSNADGVTCAKSLTVPFLAIEHSADDAVPQSHVRQVFEAASATDKSMTVLQGATHYFLGQPEMLQQAATICLDWLAERGLHDEGHHHHHH | soluble
KMGKTPKTEILSFEQYQVTPYLSGLLELDPDTEVFELERLRIADDMPLMFERSYIPAQPFQGLSIADLKRKALYDIFAKDYQETIRLAEEEFYASIALDYEAGLLGIKKGDPVLHIIRKTYNDKNILIELTFSIARADQFRYRVQHHPNG | not soluble
MSRRHSVVDAYSTVEGKIRDTMRELSALWDEVDMSEAMRLKRVDNAFTHITLLCDDMLSGEKEMIHNLKVSIREDMQNVKKMRLELEMEDFQRPAEIKDGSIALMRHLQSEVKSLETEFQTRHEDQRVLIEKICNLKKRLESDFEFEYEIHAKLNFDTDLPPCMSPATSEMISFITPTRRQAVGPKTSSPKDTQPSTSSSSRTTTPMSKRAMTPSSIASSTPSSAKKVLTRRNQFL | not soluble
MQAYTYTIIQRLDNLNQQRIDRALALMDSQSQQVFHLIPALLNYNHPVIPGYYDADVPFGVHGLELNPIQQQFIDDIQLAIGQPLKTAEKPAILGLYTMGSTSSIGQSTSSDLDIWVCISPEMDCDERELLTNKCLLITDWAQSQGVEANFFLMDEERFRSNHSEEMTGDNCGSSQHLLLLDEFYRSAVRIAGQRLLWQIVPPEMEECYDEYVSQLCSDGYIDCSEWIDFGKLNRIPAEEYFGSNLWQLYKSIDSPYKSVLKAILLEAYSWEYPHTQLLSIDTKRRFFAHEPDLYGMDAYYLMLEKVTRYLERIQDDTRLDLVRRCFYLKTHEKLSREPDVGSVAWRREALSDMIAKWNWDDSVVAELDDRRNWKVEQVKVVHHALLDALMQSYRNLIQFARRNDITSAISPQDISILARKLYAAFEVLPGKVTLLNPQISPDLHEADLSFIEVKEGGVNKSGWYLYKQPLIAHRILGQPCLEHHEYLSKLVSWAFFNGLITESTRLHAVVREAQLDIDKFYQMVSDLRNTFALRKRRPTMQALASPCEISQLAMFINFENDPTSELSGRSLKVDVKNTDIFSFGPEHKNLVGSVDLVYRNSWHEVRTLHFKGETAMLDALKTILGKMHQDALPPESVDVFCYAKNMRGVMRNMVYQLLAECIDLRLKPVEQEKRRRFKAMRLGNQTYGLFFERRGVSVQKLENSIDFYRSISTNKLKGSPLLMLDREQEYQLPEAVDGFASEGLVQFFFEDNEDGFNIYVLDESNQVEVYHQFSGSKDEMIASVNSFYTSVKDDSRVASKFINFNLPQYYQIIHPEEGNAYIIPYRNDGCSP | not soluble
MSLATVPTRSGSPRQLTTKQTGDAWEAQARRWLEGKGLRFIAANVNERGGEIDLIMREGRTTVFIEVRYRRSALYGGAAASVTRSKQHKLLQTARLWLARHNGSFDTVDCRFDVVAFTGNEVEWIKDAFNDHSEGHHHHHH | soluble
